According to patent publication US20060234282A1 (NATIONAL RESEARCH COUNCIL OF CANADA, published 2006):

T1: rat galanin receptor-2 (GAL-R2) (rat, UniProt O08726 1-372)
T1 construct: Full 372 amino acid open reading frame expressed from pCDNA3/GALR-2 in HEK293 cells; cAMP assays used whole cells; also called rat GAL-R2; RGALR2.PRO
T1 sequence: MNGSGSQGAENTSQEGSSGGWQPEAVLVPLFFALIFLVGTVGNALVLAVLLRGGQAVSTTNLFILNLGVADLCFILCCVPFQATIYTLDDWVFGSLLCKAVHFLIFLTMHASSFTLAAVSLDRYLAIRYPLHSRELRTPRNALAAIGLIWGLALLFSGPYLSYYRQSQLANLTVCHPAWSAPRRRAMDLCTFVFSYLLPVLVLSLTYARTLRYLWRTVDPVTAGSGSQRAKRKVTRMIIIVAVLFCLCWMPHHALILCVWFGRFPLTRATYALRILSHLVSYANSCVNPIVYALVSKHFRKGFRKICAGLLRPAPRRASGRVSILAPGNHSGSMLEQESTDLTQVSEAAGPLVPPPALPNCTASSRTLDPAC


Target: T1, rat galanin receptor-2 (GAL-R2)
Assay: displacement of ^125I-galanin, membranes of HEK293 cells expressing rat GAL-R2
Description: Binding reactions proceeded for 20 min at room temperature and were stopped by filtration through Unifilters-96, GF/B filters (Canberra Packard), using the 96-well Filtermate 196 filtration system from Canberra Packard. Filters were washed 5 times with 0.5 ml of ice cold 20 mM HEPES pH 7.5. The filters were dried at 55° C. for one hour and then 100 μl of μScint-20 (Canberra Packard) was added per well. Filters were counted with the Topcount microplate counter from Canberra Packard.

Row | Ki [nM] | binding result | Molecule
1 | 8.3 | – | M40 (peptide)
2 | – | no binding | RPKPQQFFGLM (peptide, UniProt P20366 58-68, looked up, Galanin-unrelated control ligand) [substance P]
3 | – | no binding | HSDAVFTDNYTRLRKQMAVKKYLNSILN (peptide, UniProt P01282 125-152, looked up, Galanin-unrelated control ligand) [vasoactive intestinal polypeptide]
